Test results published in patent publication US6509383.

How the values were obtained:
[1] = target: purified calf thymus DNA polymerase δ (calf (bovine)) (UniProt P28339); assay: cell-based or functional assay
[2] = target: his-tagged Drosophila PCNA (UniProt P17917)
Chain of his-tagged Drosophila PCNA (P17917 whole entry): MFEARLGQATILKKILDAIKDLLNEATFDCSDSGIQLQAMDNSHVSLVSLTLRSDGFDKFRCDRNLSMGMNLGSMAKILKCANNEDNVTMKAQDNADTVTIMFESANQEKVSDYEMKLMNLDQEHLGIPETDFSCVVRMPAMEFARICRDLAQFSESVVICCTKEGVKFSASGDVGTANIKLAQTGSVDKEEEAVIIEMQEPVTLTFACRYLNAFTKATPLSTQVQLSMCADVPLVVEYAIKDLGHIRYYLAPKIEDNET

Chain of purified calf thymus DNA polymerase δ (calf (bovine)) (P28339 whole entry, stated change not applied): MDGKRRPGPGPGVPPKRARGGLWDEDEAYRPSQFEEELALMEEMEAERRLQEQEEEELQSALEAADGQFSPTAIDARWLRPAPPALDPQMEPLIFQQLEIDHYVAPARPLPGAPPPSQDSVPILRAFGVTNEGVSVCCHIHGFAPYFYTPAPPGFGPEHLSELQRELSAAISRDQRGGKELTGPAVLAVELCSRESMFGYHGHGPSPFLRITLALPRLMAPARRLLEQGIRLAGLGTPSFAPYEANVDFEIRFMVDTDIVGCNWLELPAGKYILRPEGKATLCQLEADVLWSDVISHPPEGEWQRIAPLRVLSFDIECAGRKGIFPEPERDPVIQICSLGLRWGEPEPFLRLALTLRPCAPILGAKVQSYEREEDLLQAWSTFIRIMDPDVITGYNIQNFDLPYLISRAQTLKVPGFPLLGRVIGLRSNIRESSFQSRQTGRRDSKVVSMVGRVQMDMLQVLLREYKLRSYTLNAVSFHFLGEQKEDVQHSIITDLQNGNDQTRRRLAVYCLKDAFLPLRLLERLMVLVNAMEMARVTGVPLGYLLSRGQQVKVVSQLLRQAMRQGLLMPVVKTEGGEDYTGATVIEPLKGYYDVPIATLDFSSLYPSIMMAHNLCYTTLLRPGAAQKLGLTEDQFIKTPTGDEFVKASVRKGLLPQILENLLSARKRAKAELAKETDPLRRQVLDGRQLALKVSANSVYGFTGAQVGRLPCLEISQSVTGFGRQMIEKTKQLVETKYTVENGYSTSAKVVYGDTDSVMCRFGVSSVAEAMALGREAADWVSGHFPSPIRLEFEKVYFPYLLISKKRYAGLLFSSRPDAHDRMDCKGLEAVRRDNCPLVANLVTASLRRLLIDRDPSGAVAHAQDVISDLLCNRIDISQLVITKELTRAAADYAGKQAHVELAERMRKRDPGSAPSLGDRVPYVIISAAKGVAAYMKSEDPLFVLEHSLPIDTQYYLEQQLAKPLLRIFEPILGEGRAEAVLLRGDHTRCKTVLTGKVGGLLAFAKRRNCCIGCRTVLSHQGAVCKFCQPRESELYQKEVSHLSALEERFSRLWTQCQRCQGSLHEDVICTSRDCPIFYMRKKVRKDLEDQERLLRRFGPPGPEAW

Q: How did the solution assay of pol δ: extended DNA synthesis beyond model abasic template lesions, compared with wild-type PCNA (phosphorimager) [1] turn out when “NH2-terminally his-tagged E^85>K mutant human PCNA (from UniProt P12004 1-261)” was run?
A: Its solution assay of pol δ: extended DNA synthesis beyond model abasic template lesions, compared with wild-type PCNA (phosphorimager) is 40%.

Q: For purified calf thymus DNA polymerase δ, which “in situ DNA polymerase assay on Ni2+-IDA-paper ([alpha-32P]dGTP incorporation, PhosphorImager)” value [2] is on record?
A: The value was “almost no reactivity was observed corresponding to the spot of Drosophila PCNA”.
